The target of the experiment is human HBEGF (human) (UniProt Q99075).
Chain of UniProt Q99075 (Q99075 20-208): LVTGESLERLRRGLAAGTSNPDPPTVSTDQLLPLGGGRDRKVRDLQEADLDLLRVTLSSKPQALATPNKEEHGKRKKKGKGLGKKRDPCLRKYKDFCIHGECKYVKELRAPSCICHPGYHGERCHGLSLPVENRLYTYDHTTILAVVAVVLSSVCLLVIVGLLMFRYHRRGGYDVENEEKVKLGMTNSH

As for “Diphtheria toxin (from UniProt P00588 33-567) (natural protein)”, the EC50 of toxicity (dose titration) on WT ARN8 cells (basal levels of HBEGF) turned out to be 26 pM.

For the origin of these results see doi:10.1101/2021.08.10.455837.
